# Source: article PMC9482650, “Quantitative fragmentomics allow affinity mapping of interactomes” (Nature Communications, 2022)
# B1: PRKCA, P17252 (peptide)
# chain: FVHPILQSAV
# B2: HPV31-E6, P17386 (peptide)
# chain: SRRPRTETQV
# B3: ACOT6, Q3I5F7 (peptide)
# chain: GKKSVKHSKI
# Tests used:
# Test in all cases: holdup assay
# Set-up in all cases: key: below the threshold = too weak to quantify, mostly under pKd 3.1 to 4
# [1] = molecular target: T1, DVL3, Q92997
# T1 sequence (Q92997 244-331, limits assumed, looked up): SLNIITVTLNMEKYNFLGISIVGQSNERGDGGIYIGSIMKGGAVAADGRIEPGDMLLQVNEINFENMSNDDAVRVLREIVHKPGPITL
# [2] = molecular target: NOS1, P29475
# NOS1, P29475, sequence (P29475 9-101): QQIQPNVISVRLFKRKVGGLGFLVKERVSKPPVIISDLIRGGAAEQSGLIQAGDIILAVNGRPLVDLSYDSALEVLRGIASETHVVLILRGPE
# [3] = molecular target: PARD3_3, Q8TEW0
# PARD3_3, Q8TEW0, sequence (Q8TEW0 582-685): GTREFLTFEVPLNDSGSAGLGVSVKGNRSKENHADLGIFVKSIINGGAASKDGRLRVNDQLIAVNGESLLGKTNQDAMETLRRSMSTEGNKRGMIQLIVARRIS
# [4] = molecular target: T2, FRMPD1, Q5SYB0
# T2 sequence (Q5SYB0 52-145, limits assumed, looked up): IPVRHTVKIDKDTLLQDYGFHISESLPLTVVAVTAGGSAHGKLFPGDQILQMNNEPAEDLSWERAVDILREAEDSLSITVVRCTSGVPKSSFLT
# [5] = molecular target: Inadl_10, Q8NI35
# Inadl_10, Q8NI35, sequence (Q8NI35 1673-1763): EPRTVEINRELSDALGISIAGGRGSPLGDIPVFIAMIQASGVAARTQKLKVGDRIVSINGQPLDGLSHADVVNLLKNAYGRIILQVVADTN
# [6] = molecular target: NHERF4_2, Q86UT5
# NHERF4_2, Q86UT5, sequence (Q86UT5 220-308): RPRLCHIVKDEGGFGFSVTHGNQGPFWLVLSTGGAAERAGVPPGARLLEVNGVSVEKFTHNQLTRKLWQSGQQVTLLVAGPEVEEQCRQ
# [7] = molecular target: HTRA2, O43464
# HTRA2, O43464, sequence (O43464 355-458): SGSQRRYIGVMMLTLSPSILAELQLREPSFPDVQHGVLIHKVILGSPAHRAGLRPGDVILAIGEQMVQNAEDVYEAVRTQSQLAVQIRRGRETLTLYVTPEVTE
# [8] = molecular target: MAGI1_2, Q96QZ7
# MAGI1_2, Q96QZ7, sequence (Q96QZ7 456-580): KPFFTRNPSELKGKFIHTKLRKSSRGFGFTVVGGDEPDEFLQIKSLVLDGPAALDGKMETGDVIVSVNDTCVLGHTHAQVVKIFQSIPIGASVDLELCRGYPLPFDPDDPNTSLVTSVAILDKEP
# [9] = molecular target: GRIP2_6, Q9C0E4
# GRIP2_6, Q9C0E4, sequence (Q9C0E4 648-740): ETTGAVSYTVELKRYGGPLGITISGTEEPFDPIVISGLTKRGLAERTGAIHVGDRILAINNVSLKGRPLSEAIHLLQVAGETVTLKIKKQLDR
# [10] = molecular target: T3, APBA2_2, Q99767
# T3 sequence (Q99767 654-744, limits assumed, looked up): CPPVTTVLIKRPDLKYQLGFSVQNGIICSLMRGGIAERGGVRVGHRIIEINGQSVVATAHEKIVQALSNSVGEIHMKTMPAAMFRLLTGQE
# [11] = molecular target: T4, LNX2_2, Q8N448
# T4 sequence (Q8N448 334-432, limits assumed, looked up): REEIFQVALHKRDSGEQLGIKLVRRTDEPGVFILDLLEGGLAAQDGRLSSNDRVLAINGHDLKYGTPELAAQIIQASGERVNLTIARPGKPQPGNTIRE
# [12] = molecular target: DLG2_3, Q15700
# [13] = molecular target: T5, MPP2, Q14168
# T5 sequence (Q14168 180-250, limits assumed, looked up): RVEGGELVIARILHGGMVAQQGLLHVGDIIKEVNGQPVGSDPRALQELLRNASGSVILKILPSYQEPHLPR
# [14] = molecular target: LDB3, O75112
# LDB3, O75112, sequence (O75112 1-94): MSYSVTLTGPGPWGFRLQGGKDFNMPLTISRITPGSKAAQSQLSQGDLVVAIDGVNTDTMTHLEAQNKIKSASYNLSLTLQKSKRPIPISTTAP
# [15] = molecular target: T6, DFNB31_2, Q9P202
# T6 sequence (Q9P202 274-371, limits assumed, looked up): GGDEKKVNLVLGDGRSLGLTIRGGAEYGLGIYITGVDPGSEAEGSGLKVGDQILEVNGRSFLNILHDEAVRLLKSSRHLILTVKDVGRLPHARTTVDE
# [16] = molecular target: T7, LIN7C, Q9NUP9
# T7 sequence (Q9NUP9 88-185, limits assumed, looked up): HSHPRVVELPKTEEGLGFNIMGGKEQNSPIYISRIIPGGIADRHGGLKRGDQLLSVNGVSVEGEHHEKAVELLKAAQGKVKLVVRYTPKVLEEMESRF
# [17] = molecular target: GORASP1, Q9BQQ3
# GORASP1, Q9BQQ3, sequence (Q9BQQ3 1-208): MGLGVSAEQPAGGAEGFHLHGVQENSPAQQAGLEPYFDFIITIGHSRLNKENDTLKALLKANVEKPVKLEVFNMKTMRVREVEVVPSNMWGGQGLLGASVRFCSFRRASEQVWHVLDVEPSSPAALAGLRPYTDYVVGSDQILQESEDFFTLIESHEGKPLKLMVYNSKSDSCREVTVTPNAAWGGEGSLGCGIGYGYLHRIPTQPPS
# [18] = molecular target: T8, TX1BP3, O14907
# T8 sequence (O14907 10-122, limits assumed, looked up): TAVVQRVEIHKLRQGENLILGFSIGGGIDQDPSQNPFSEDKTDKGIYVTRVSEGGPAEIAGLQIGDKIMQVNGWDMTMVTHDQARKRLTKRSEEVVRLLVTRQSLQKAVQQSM
# [19] = molecular target: GRIP2_7, Q9C0E4
# GRIP2_7, Q9C0E4, sequence (Q9C0E4 934-1023): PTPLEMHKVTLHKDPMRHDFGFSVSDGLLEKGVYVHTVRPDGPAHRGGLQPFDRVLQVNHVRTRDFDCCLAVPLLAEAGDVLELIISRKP
# [20] = molecular target: GRIP2_5, Q9C0E4
# GRIP2_5, Q9C0E4, sequence (Q9C0E4 544-642): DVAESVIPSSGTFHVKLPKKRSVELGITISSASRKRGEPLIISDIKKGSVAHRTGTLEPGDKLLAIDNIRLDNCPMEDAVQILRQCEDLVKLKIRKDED
# [21] = molecular target: T9, SIPA1L2, Q9P2F8
# T9 sequence (Q9P2F8 945-1036, limits assumed, looked up): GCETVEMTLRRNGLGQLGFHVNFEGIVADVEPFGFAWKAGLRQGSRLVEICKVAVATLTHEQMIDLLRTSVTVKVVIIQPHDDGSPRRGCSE
# [22] = molecular target: T10, DLG3_1, Q92796
# T10 sequence (Q92796 125-227, limits assumed, looked up): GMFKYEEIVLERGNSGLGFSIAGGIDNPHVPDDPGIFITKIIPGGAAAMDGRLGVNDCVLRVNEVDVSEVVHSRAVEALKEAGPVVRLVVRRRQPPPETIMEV
# [23] = molecular target: DLG1_1, Q12959
# [24] = molecular target: SCRIB_3, Q14160
# SCRIB_3, Q14160, sequence (Q14160 999-1103): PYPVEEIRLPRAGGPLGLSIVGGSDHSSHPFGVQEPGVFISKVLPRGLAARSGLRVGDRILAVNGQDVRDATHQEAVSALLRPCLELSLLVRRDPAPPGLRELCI
# [25] = molecular target: GRIP2_4, Q9C0E4
# GRIP2_4, Q9C0E4, sequence (Q9C0E4 446-548): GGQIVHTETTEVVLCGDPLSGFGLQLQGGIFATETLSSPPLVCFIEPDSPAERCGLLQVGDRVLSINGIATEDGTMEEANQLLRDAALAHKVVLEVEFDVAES
# [26] = molecular target: T11, MPDZ_10, O75970
# T11 sequence (O75970 1624-1722, limits assumed, looked up): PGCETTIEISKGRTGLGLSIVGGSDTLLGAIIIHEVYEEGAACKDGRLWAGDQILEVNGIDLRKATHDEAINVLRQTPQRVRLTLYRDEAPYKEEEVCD
# [27] = plain residues with an end cap or a label only (N-terminal biotin on a linker: ado-ado)
# [28] = plain residues with an end cap or a label only (N-terminal biotin on a linker: ttds)
binder,measurement,setting,value
B1,pKd,[1]; [27],below the threshold
same,pKd,[2]; [27],3.57
same,pKd,[3]; [27],below the threshold
same,pKd,[4]; [27],below the threshold
same,pKd,[5]; [27],below the threshold
same,pKd,[6]; [27],below the threshold
same,pKd,[7]; [27],below the threshold
same,pKd,[8]; [27],3.73
same,pKd,[9]; [27],below the threshold
same,pKd,[10]; [27],below the threshold
same,pKd,[11]; [27],below the threshold
same,pKd,[12]; [27],3.74
same,pKd,[13]; [27],below the threshold
same,pKd,[14]; [27],below the threshold
same,pKd,[15]; [27],below the threshold
same,pKd,[16]; [27],3.52
same,pKd,[17]; [27],below the threshold
same,pKd,[18]; [27],5.09
same,pKd,[19]; [27],below the threshold
same,pKd,[20]; [27],below the threshold
same,pKd,[21]; [27],below the threshold
same,pKd,[22]; [27],3.49
same,pKd,[23]; [27],3.81
same,pKd,[24]; [27],4.3
same,pKd,[25]; [27],below the threshold
same,pKd,[26]; [27],below the threshold
B2,pKd,[1]; [28],below the threshold
same,pKd,[2]; [28],3.91
same,pKd,[3]; [28],below the threshold
same,pKd,[4]; [28],below the threshold
same,pKd,[5]; [28],below the threshold
same,pKd,[6]; [28],below the threshold
same,pKd,[7]; [28],below the threshold
same,pKd,[8]; [28],5.54
same,pKd,[9]; [28],below the threshold
same,pKd,[10]; [28],below the threshold
same,pKd,[11]; [28],below the threshold
same,pKd,[12]; [28],5.1
same,pKd,[13]; [28],below the threshold
same,pKd,[14]; [28],below the threshold
same,pKd,[15]; [28],below the threshold
same,pKd,[16]; [28],3.93
same,pKd,[17]; [28],below the threshold
same,pKd,[18]; [28],4.61
same,pKd,[19]; [28],below the threshold
same,pKd,[20]; [28],below the threshold
same,pKd,[21]; [28],below the threshold
same,pKd,[22]; [28],4.44
same,pKd,[23]; [28],5.16
same,pKd,[24]; [28],4.56
same,pKd,[25]; [28],below the threshold
same,pKd,[26]; [28],below the threshold
B3,pKd,[1]; [27],below the threshold
same,pKd,[2]; [27],below the threshold
same,pKd,[3]; [27],below the threshold
same,pKd,[4]; [27],below the threshold
same,pKd,[5]; [27],below the threshold
same,pKd,[6]; [27],below the threshold
same,pKd,[7]; [27],below the threshold
same,pKd,[8]; [27],below the threshold
same,pKd,[9]; [27],below the threshold
same,pKd,[10]; [27],below the threshold
same,pKd,[11]; [27],below the threshold
same,pKd,[12]; [27],3.65
same,pKd,[13]; [27],below the threshold
same,pKd,[14]; [27],below the threshold
same,pKd,[15]; [27],3.81
same,pKd,[16]; [27],3.48
same,pKd,[17]; [27],below the threshold
same,pKd,[18]; [27],below the threshold
same,pKd,[19]; [27],below the threshold
same,pKd,[20]; [27],below the threshold
same,pKd,[21]; [27],below the threshold
same,pKd,[22]; [27],below the threshold
same,pKd,[23]; [27],below the threshold
same,pKd,[24]; [27],below the threshold
same,pKd,[25]; [27],below the threshold
same,pKd,[26]; [27],below the threshold
